{"source": "patent US20240263160A1", "about": "(BIOMARIN PHARMACEUTICAL, published 2024)", "binders": {"B1": {"name": "BMN001 therapeutic fusion protein (mature human Naglu fused through a rigid linker to a furin-resistant IGF-II peptide, amino acids 8-67 of mature human IGF-II … (enzyme)", "chain": "DEAREAAAVRALVARLLGPGPAADFSVSVERALAAKPGLDTYSLGGGGAARVRVRGSTGVAAAAGLHRYLRDFCGCHVAWSGSQLRLPRPLPAVPGELTEATPNRYRYYQNVCTQSYSFVWWDWARWEREIDWMALNGINLALAWSGQEAIWQRVYLALGLTQAEINEFFTGPAFLAWGRMGNLHTWDGPLPPSWHIKQLYLQHRVLDQMRSFGMTPVLPAFAGHVPEAVTRVFPQVNVTKMGSWGHFNCSYSCSFLLAPEDPIFPIIGSLFLRELIKEFGTDHIYGADTFNEMQPPSSEPSYLAAATTAVYEAMTAVDTEAVWLLQGWLFQHQPQFWGPAQIRAVLGAVPRGRLLVLDLFAESQPVYTRTASFQGQPFIWCMLHNFGGNHGLFGALEAVNGGPEAARLFPNSTMVGTGMAPEGISQNEVVYSLMAELGWRKDPVPDLAAWVTSFAARRYGVSHPDAGAAWRLLLRSVYNCSGEACRGHNRSPLVRRPSLQMNTSIWYNRSDVFEAWRLLLTSAPSLATSPAFRYDLLDLTRQAVQELVSLYYEEARSAYLSKELASLLRAGGVLAYELLPALDEVLASDSRFLLGSWLEQARAAAVSEAEADFYEQNSRYQLTLWGPEGNILDYANKQLAGLVANYYTPRWRLFLEALVDSVAQGIPFQQHQFDKNVFQLEQAFVLSKQRYPSQPRGDTVDLAKKIFLKYYPRWVAGSWGAPGGGSPAPAPTPAPAPTPAPAGGGPSGAPLCGGELVDTLQFVCGDRGFYFSRPASRVSARSRGIVEECCFRSCDLALLETYCATPAKSE", "notes": "also called Naglu/IGF-II fusion protein"}}, "biological_target": "IGF2 receptor (cation-independent mannose-6-phosphate receptor)", "assay": "IGF2 receptor binding assay; average over the BMN001 lots used in the nonclinical studies; format and competitor not described", "data": [{"binder": "B1", "values": [{"measurement": "IC50", "result": 0.28, "unit": "nM"}]}]}
